Article doi:10.1101/2020.06.30.178921 (bioRxiv, 2020)

Target: CH848TF gp120 monomeric protein (HIV-1 CH848 transmitted-founder …, UniProt A0A1W6IPB2, strain, N-linked glycans)
Experiment: ELISA

B1: 2G12 IgG (antibody, V domains shown)
VH: EVQLVESGGGLVKAGGSLILSCGVSNFRISAHTMNWVRRVPGGGLEWVASISTSSTYRDYADAVKGRFTVSRDDLEDFVYLQMHKMRVEDTAIYYCARKGSDRLSDNDPFDAWGPGTVVTVSP
VL: DVVMTQSPSTLSASVGDTITITCRASQSIETWLAWYQQKPGKAPKLLIYKASTLKTGVPSRFSGSGSGTEFTLTISGLQFDDFATYHCQHYAGYSATFGQGTRVEIK
- binding result: binds
